Numbering of substitutions follows the chain as printed.

Experiment [1] has as its target T1, G-CSFR(Ig-CRH)E design 9, purified, tag cleaved (human, UniProt Q99062 26-331).
T1 construct: SPR protein; also called Design 9 G-CSFR(Ig-CRH)E
T1 chain: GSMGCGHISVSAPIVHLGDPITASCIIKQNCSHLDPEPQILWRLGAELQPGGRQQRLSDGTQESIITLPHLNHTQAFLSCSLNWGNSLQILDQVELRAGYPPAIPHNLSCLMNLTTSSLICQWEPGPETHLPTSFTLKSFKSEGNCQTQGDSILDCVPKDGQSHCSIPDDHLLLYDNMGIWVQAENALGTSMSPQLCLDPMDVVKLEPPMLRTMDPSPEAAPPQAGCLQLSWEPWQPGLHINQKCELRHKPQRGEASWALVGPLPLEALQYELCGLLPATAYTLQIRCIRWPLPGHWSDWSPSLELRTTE
Briefly: SPR (Biacore T200).

The target of experiment [2] is T2, G-CSFR(Ig-CRH)E design 30, purified, tag cleaved (human, UniProt Q99062 26-331).
T2 construct: also called Design 30 G-CSFR(Ig-CRH)E
T2 chain: T1 chain with E143R, D170K, D176Q
Briefly: SPR (Biacore T200).

Experiment [3] addresses T3, G-CSFR(Ig-CRH)E design 34, purified, tag cleaved (human, UniProt Q99062 26-331).
T3 construct: SPR protein; also called Design 34 G-CSFR(Ig-CRH)E
T3 chain: T1 chain with D170K, D176Q
Briefly: SPR (Biacore T200). Background: In SPR one partner is held on a chip, and binding of the other changes the refractive index at the surface.

Experiment [4] has as its target T2, G-CSFR(Ig-CRH)E design 30, purified, …. Nature of the experiment: SPR (Biacore T200), WT G-CSF vs design receptor; KD relative to WT:WT control (larger = weaker).
Experiment [5] deals with T4, G-CSFR(Ig-CRH)E design 35, purified, tag cleaved (human, UniProt Q99062 26-331).
T4 construct: SPR protein; also called Design #35 G-CSFR(Ig-CRH)E
T4 chain: T1 chain with D169R, D170K, L173E, D176E
The description is as above.

Experiment [6] deals with T1, G-CSFR(Ig-CRH)E design 9, purified, tag …. Nature of the experiment: SPR (Biacore T200), WT G-CSF vs design receptor; steady-state derived KD relative to steady-state WT:WT KD (larger = weaker).
The target in experiment [7] is T3, G-CSFR(Ig-CRH)E design 34, purified, …. The description is as above.
The target of experiment [8] is T5, WT G-CSFR(Ig-CRH), purified, tag cleaved (human, UniProt Q99062 26-331).
T5 construct: also called G-CSFRWT; wild type G-CSFR ECD
T5 chain: T1 chain with E143R, D169R, D170K, D176Q
Briefly: SPR (Biacore T200), WT G-CSFR(Ig-CRH) amine-coupled.

Experiment [9] addresses T6, G-CSFR(Ig-CRH)E design 307, purified, tag cleaved (human, UniProt Q99062 26-331).
T6 construct: SPR protein; also called Design 307 G-CSFR(Ig-CRH)E
T6 chain: T1 chain with R43E, E143R, D169R, D170K, D176Q, D199K, D202K, R290E
Nature of the experiment: SPR (Biacore T200), G-CSFR(Ig-CRH)E amine-coupled, G-CSFE injected; steady-state derived KD relative to steady-state WT:WT KD.
Method: (§1) To determine binding affinity of G-CSFE to G-CSFRE the G-CSFRE mutant was captured by standard amine coupling as described by the manufacturer (GE LifeSciences). Briefly, immediately after EDC/NHS activation, a 5 μg/mL solution of G-CSFRE in 10 mM NaOAc, pH 5.0, was injected at a flow rate of 5 μL/min until a receptor density of ˜700-900 RU was reached. The remaining active groups were quenched by a 420 s injection of 1 M ethanolamine hydrochloride-NaOH pH 8.5 at 10 μL/min. Using single-cycle kinetics, six concentrations of a two-fold dilution series of the corresponding G-CSFE mutant starting at 200 nM with a blank buffer control were sequentially injected at 25 μL/min for 300s with a 1800s dissociation phase, resulting in a set of sensorgrams with a buffer blank reference. The same sample titration was also performed on a reference cell with no variants captured. The chip was regenerated to prepare for the next injection cycle by one pulse of 10 mM glycine/HCl, pH 2.0, for 30 s at 30 μL/min.
(§2) Double-referenced sensorgrams from duplicate or triplicate repeat injections were analyzed using Biacore™ T200 Evaluation Software v3.0 and fit to the 1:1 Langmuir binding model.
(§3) Kinetic-derived affinity constants (KD) where obtained by fitting the association and dissociation phases of the curves. […] For the cases in which the kinetic parameters could not be fit an attempt was made to derive a steady state affinity constant.

The target in experiment [10] is T7, G-CSFR(Ig-CRH)E design 300, purified, tag cleaved (human, UniProt Q99062 26-331).
T7 construct: SPR protein; also called Design 300 G-CSFR(Ig-CRH)E
T7 chain: T1 chain with F77K, Q93K, E143R, D170K, D176Q
Nature of the experiment: SPR (Biacore T200), G-CSFR(Ig-CRH)E amine-coupled, G-CSFE injected; KD relative to WT:WT control (larger = weaker).
Method: (§4) The SPR binding assays were carried out on a Biacore T200 instrument (GE Healthcare, Mississauga, ON, Canada) with PBS-T (PBS+0.05% (v/v) Tween 20) running buffer at a temperature of 25° C. CMS Series S sensor chip, Biacore amine coupling kit (NHS, EDC and 1 M ethanolamine), and 10 mM sodium acetate buffers were all purchased from GE Healthcare. PBS running buffer with 0.05% Tween20 (PBS-T) was purchased from Teknova Inc. (Hollister, CA).
as §1, §2

Experiment [11] deals with T8, G-CSFR(Ig-CRH)E design 304, purified, tag cleaved (human, UniProt Q99062 26-331).
T8 construct: SPR protein; also called Design 304 G-CSFR(Ig-CRH)E
T8 chain: T1 chain with R43E, E95K, E143R, D170K, D176Q
The experiment is described as above.
Method: as §4, §1, §2

Experiment [12] has as its target T9, G-CSFR(Ig-CRH)E design 402, purified, tag cleaved (human, UniProt Q99062 26-331).
T9 construct: SPR protein; also called Design 402 G-CSFR(Ig-CRH)E
T9 chain: T1 chain with R43E, E143R, D169E, D170K, D176E, R290E
Nature of the experiment: SPR (Biacore T200), G-CSFR(Ig-CRH)E amine-coupled, G-CSFE injected; steady-state derived KD relative to steady-state WT:WT KD.
Method: as §1, §2, §3

Experiment [13] has as its target T10, G-CSFR(Ig-CRH)E design 401, purified, tag cleaved (human, UniProt Q99062 26-331).
T10 construct: SPR protein; also called Design 401 G-CSFR(Ig-CRH)E
T10 chain: T1 chain with R43E, E143R, D170K, D176Q, R290D
The experiment is described as above.
Method: as §1, §2, §3

For experiment [14], the target named is T11, G-CSFR(Ig-CRH)E design 303, purified, tag cleaved (human, UniProt Q99062 26-331).
T11 construct: SPR protein; also called Design 303 G-CSFR(Ig-CRH)E
T11 chain: T1 chain with E95K, E143R, D170K, D176Q
The experiment is described as above.
Method: as §1, §2, §3

B1: WT G-CSF, purified, tag cleaved (ligand)
chain: TPLGPASSLPQSFLLKCLEQVRKIQGDGAALQEKLCATYKLCHPEELVLLGHSLGIPWAPLSSCPSQALQLAGCLSQLHSGLFLYQGLLQALEGISPELGPTLDTLQLDVADFATTIWQQMEELGMAPALQPTQGAMPAFASAFQRRAGGVLVASHLQSFLEVSYRVLRHLAQAAAENLYFQ
notes: also called G-CSFWT
B1: the “fold weaker affinity (vs WT:WT)” value in [1], in [2] and in experiment [3] was 700 fold in each case. For the same molecule, the “KD fold change (vs WT:WT)” value is 774 fold in [4], 19 fold in experiment [5], 8810 fold in experiment [6] and 4260 fold in experiment [7].

B2: G-CSFE design 307, purified, tag cleaved (ligand)
chain: B1 chain with S12E, K16D, E19K, E46R
notes: also called 307 G-CSF
Consider B2, for which the binding result in [8] was “no binding”. In experiment [9], the “KD fold change (vs WT:WT)” value stood at 0.6 fold.

B3: G-CSFE design 300, purified, tag cleaved (ligand)
chain: B1 chain with K40D, L41D, L108K, D112R
notes: also called Design 300 G-CSFE
In the case of B3, the binding result in experiment [8] was “no binding”. Moreover, in experiment [10], the “KD fold change (vs WT:WT)” value stood at 194 fold.

B4: G-CSFE design 304, purified, tag cleaved (ligand)
chain: B1 chain with E46R, L108K, D112R, R147E
notes: also called 304 G-CSF
Consider B4, for which the binding result in [8] is recorded as “no binding”. For the same molecule, the “KD fold change (vs WT:WT)” value in experiment [11] worked out at 6.5 fold.

B5: G-CSFE design 402, purified, tag cleaved (ligand)
chain: B1 chain with E19K, E46R, D112K, T115K
notes: also called Design 402 G-CSFE
With B5, in [8], the binding result is on record as “no binding”. Moreover, in experiment [12], the “KD fold change (vs WT:WT)” value was 0.8 fold.

B6: G-CSFE design 401, purified, tag cleaved (ligand)
chain: B1 chain with E19K, E46R, L108K, D112R
notes: also called Design 401 G-CSFE
Turning to B6, in experiment [8], the binding result was “no binding”. Moreover, the “KD fold change (vs WT:WT)” value in experiment [13] was found to be 0.6 fold.

B7: G-CSFE design 303, purified, tag cleaved (ligand)
chain: B1 chain with L108K, D112R, R147E
notes: also called Design 303 G-CSFE
Take B7: in experiment [8], the binding result is “no binding”. The “KD fold change (vs WT:WT)” value in [14] was found to be 2.2 fold.

Values taken from patent publication US20240115603A1 (Zymeworks, published 2024).
